How the values were obtained:
[1] = target: IgG1 Fc^E382R (human); assay: crystal structure; EndoS^D233A/E235L and IgG1 Fc^E382R combined 1:1, complex purified by SEC, exchanged into 50 mM HEPES, 150 mM KCl pH 7.5; crystals in Morpheus condition (0.09 M halogens, buffer system 2 pH 7.5, 37.5 % precipitant mix 4); space group P2_(1)2_(1)2_(1), 3.45 Å
[2] = target: IgG1 Fc^E382A (human); assay: crystal structure; IdeS^C94A and IgG1 Fc^E382A combined 1:1, complex purified by SEC, exchanged into 50 mM HEPES, 150 mM KCl pH 7.5; crystals in Morpheus condition (0.12 M monosaccharides mix, buffer system 3 pH 8.5, 30 % precipitant mix 1); space group C121, twinned data, 2.34 Å

Substance | stoichiometry N (EndoS per IgG1 Fc molecule) [1] | stoichiometry N [2] [IdeS per Fc]
EndoS^D233A/E235L (truncated EndoS, residues 98-995) (from UniProt Q99Y92 98-995) (enzyme) | 2 | 
IdeS^C94A (IdeS from Streptococcus pyogenes strain MGAS15252, Mac-2 variant, amino acids 41-339) (enzyme) |  | 1

— paper PMC9759587
